Source: paper doi:10.1101/2020.01.12.903617, “The peptide sensor motif stabilizes the outward-facing conformation of TmrAB” (bioRxiv, 2020)
No end group written: not given here. fluorescein = fluorescein label attached to the Cys side chain

Target: T1, TmrAB D140A^TmrA (Thermus thermophilus, UniProt Q72J05 1-600; Q72J04 1-578, D140A)
T1 construct: TmrA, Thermus thermophilus, the chain of TmrAB with the canonical Walker B motif; TmrB, Thermus thermophilus, the chain of TmrAB with the non-canonical Walker B motif
T1 sequence 1: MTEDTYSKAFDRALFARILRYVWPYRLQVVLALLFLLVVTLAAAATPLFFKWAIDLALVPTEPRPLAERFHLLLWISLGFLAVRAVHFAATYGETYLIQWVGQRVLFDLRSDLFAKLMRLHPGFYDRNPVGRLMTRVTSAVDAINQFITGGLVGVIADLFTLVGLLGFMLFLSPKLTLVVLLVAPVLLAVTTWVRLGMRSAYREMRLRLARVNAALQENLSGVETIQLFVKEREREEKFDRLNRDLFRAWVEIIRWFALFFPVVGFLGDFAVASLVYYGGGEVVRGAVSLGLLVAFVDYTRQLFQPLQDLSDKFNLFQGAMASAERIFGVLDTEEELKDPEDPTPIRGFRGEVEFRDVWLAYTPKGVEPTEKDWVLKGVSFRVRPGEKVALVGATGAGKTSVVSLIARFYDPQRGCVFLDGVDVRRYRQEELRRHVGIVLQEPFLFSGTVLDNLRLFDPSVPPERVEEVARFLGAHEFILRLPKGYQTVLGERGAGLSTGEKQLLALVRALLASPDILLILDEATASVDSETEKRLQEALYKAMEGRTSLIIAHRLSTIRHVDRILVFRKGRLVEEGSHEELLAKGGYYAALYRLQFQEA
T1 sequence 2: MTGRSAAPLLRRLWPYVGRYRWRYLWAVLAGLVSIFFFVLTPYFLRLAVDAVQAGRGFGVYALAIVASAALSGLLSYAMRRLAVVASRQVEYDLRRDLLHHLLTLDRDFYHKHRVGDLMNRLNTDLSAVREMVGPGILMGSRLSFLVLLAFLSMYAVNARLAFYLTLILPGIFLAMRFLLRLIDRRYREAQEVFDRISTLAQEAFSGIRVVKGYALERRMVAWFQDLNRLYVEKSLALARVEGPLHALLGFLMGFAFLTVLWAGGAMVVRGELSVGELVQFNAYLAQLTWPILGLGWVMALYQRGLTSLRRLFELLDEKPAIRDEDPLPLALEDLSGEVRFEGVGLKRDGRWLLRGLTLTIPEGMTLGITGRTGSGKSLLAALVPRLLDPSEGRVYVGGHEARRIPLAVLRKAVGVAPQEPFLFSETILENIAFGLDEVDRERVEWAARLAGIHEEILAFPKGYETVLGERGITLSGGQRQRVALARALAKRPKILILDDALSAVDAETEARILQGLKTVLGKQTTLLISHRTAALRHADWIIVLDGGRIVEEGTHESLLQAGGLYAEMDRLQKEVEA
Experiment: fluorescence polarisation; 1.7 uM TmrAB with 50 nM RRY(C^Fluorescein)KSTEL in SEC buffer (20 mM HEPES, 150 mM NaCl, pH 7, 0.05% ß-DDM), 15 minutes on ice, in the absence or presence of 5 mM ATP and 10 mM MgCl2; read at 25°C (the results say 4°C); signal normalized to WT without ATP
Conditions: both partners purified

B1: fluorescent transport substrate peptide RRY(C^Fluorescein)KSTEL (peptide)
peptide: RRYC(fluorescein)KSTEL
notes: fluorescein-labelled transport substrate peptide of TmrAB; also called fluorescently-labeled peptide substrate; peptide substrate; source: bought: Genscript
binding result: binds
